Test results published in US10487318.

T1: 33mer peptide (LQLQPFPQPQLPYPQPQLPYPQPQLPYPQPQPF)
T1 chain: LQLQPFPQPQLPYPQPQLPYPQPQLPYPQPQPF

T2: 26mer peptide (FLQPQQPFPQQPQQPYPQQPQQPFPQ)
T2 chain: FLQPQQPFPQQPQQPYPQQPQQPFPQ

T3: α2-gliadin peptide (PQPQLPYSQPQPFR)
T3 chain: PQPQLPYSQPQPFR

T4: Glia_56-79 peptide (LQLQPFPQPQLPYPQPQLPY)
T4 chain: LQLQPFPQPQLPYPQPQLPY

T5: α9-gliadin peptide (QLQPFPQPQLPY)
T5 chain: QLQPFPQPQLPY

T6: γ-gliadin peptide (IQPQQPAQL)
T6 chain: IQPQQPAQL

T7: fluorescent analogue of gliadin, hexapeptide QPQLPY conjugated to a fluorophore and a quencher
T7 chain: QPQLPY

T8: fluorescently quenched α-gliadin hexapeptide analogue QXL520-PQPQLP-K(5-FAM)-NH2
T8 chain: PQPQLP

B1: Homologue 4 mutant (protein)
chain: MANHPLNGSERECLKDAQPIGKADPNERLEVTMLVRRRSHDAFEKHISALAAQGASAKHIDHDEFTKHFGADSADLAAVHAFAQKHGLSVVESHEARRAVVLSGTVAQFDAAFGVSLQQYEHDGGTYRGRTGPIHLPDELNGVVDAVMGLDNRPQARPSFRTRAQGNVRWTARAAGASTFTPVQLASLYDFPQGDGQNQCIGIIELGGGYRPADLKTYFASLNMKAPSVTAVSVDHGRNHPTGDPNGPDGEVMLDIEVAGAVAPGAKIVVYFAPNTDAGFIDAIGTAIHDTKNKPSVISISWSGPESAWTQQAMNAFDQAFQSAAALGVTICAASGDNGSGGGVGDGADHVHFPASSPYALGCGGTSLQASGNGIASETVWNDGANGGATGGGVSSFFALPAWQEGLRVTRAGGAHSPLAMRGVPDVAGNADPVTGYEVRVDGHDMVIGGTSAVAPLWAGLIARINAIKGAPVGYINPHLYKDPLALVDITKGNNDDFHATAGWDACTGLGRPDGKKVKDAVS
B2: KumaMax™ (protein)
chain: MSDMEKPWKEGEEARAVLQGHARAQAPQAVDKGPVAGDERMAVTVVLRRQRAGELAAHVERQAAIAPHAREHLKREAFAASHGASLDDFAELRRFADAHGLALDRANVAAGTAVLSGPDDAINRAFGVELRHFDHPDGSYRSYLGEVTVPASIAPMIEAVLGLDTRPVARPHFRMQRRAEGGFEARSQAAAPTAYTPLDVAQAYQFPEGLDGQGQCIAIIELGGGYDEASLAQYFASLGVPAPQVVSVSVDGASNQPTGDPKGPDGEVELDIEVAGALAPGAKFAVYFAPDTTAGFLDAITTAIHDPTLKPSVVSISWSGPEDSWTSAAIAAMNRAFLDAAALGVTVLAAAGDSGSTGGEQDGLYHVHFPAASPYVLACGGTRLVASGGRIAQETVWNDGPDGGATGGGVSRIFPLPAWQEHANVPPSANPGASSGRGVPDLAGNADPATGYEVVIDGEATVIGGTSAVAPLFAALVARINQKLGKAVGYLNPTLYQLPADVFHDITEGNNDIANRAQIYQAGPGWDPCTGLGSPIGVRLLQALLPSASQPQPGSTENLYFQSGALE
B3: Homologue 9 (NCBI YP_005042475) (protein)
chain: MTKQPVSGSSDKIHPDDAKCIGDCDPSEQIEVIVMLRRKDEAGFRQMMSRIDAGEAPGQAVSREEFDRRFTASDEDIDKVKAFAKQYGLSVERAETETRSVVLKGTIEQFQKAFDVKLERFQHHNIGEYRGRTGPVNVPDEMHDAVTAVLGLDSKPQARPHFRFRPPFKPLRGAAPASFSPVDLAKLYDFPDGDGAGQCIAIIELGGGYRDSDLSAYFSKLGVKAPTVVPVGVDGGKNAPTGNPNGPDGEVTLDIEIAGAIAPGARIAVYFAPNSDAGFVDAVNRALHDAANKPSVISISWGGPESNWSPQSMSAFNDVLQSAAALGVTVCAASGDGGSADGVGDGADHVDFPASSPYVLGCGGTSLAASGAGIAKEVVWNDGDQGGAGGGGVSGTFALPVWQKGLSVTRNGKHIALAKRGVPDVAGDASPQTGYEVLIDGEDTVVGGTSAVAPLWAALIARINAIDASPAGFVNPKLYKAKTAFRDITEGNNGSFSAAAGWDACTGMGSPDGGKIAAALKPAKPSQSAGQQ
B4: Kumamolisin-As (wild type) (protein)
chain: MSDMEKPWKEGEEARAVLQGHARAQAPQAVDKGPVAGDERMAVTVVLRRQRAGELAAHVERQAAIAPHAREHLKREAFAASHGASLDDFAELRRFADAHGLALDRANVAAGTAVLSGPVDAINRAFGVELRHFDHPDGSYRSYLGEVTVPASIAPMIEAVLGLDTRPVARPHFRMQRRAEGGFEARSQAAAPTAYTPLDVAQAYQFPEGLDGQGQCIAIIELGGGYDEASLAQYFASLGVPAPQVVSVSVDGASNQPTGDPSGPDGEVELDIEVAGALAPGAKFAVYFAPNTDAGFLDAITTAIHDPTLKPSVVSISWGGPEDSWTSAAIAAMNRAFLDAAALGVTVLAAAGDSGSTDGEQDGLYHVDFPAASPYVLACGGTRLVASGGRIAQETVWNDGPDGGATGGGVSRIFPLPAWQEHANVPPSANPGASSGRGVPDLAGNADPATGYEVVIDGEATVIGGTSAVAPLFAALVARINQKLGKAVGYLNPTLYQLPADVFHDITEGNNDIANRAQIYQAGPGWDPCTGLGSPIGVRLLQALLPSASQPQPGSTENLYFQSGALEHHHHHH

Columns and labels:
[1] = molecular target: T1, 33mer peptide …
[2] = molecular target: T2, 26mer peptide …
[3] = molecular target: T3, α2-gliadin peptide (PQPQLPYSQPQPFR)
[4] = molecular target: T4, Glia_56-79 peptide …
[5] = molecular target: T5, α9-gliadin peptide (QLQPFPQPQLPY)
[6] = molecular target: T6, γ-gliadin peptide (IQPQQPAQL)
[7] = molecular target: T7, fluorescent analogue of gliadin, …
[8] = molecular target: T8, fluorescently quenched α-gliadin …

Row | Protein | activity on peptide (percent) [1] [%] | activity on peptide (percent) [2] [%] | grade and % of peptide after an 80-min incubation [3] | grade and % of peptide after an 80-min incubation [4] | grade and % of peptide after an 80-min incubation [5] | Degradation pattern of 33mer (60 min) [1] | grade and % of peptide after an 80-min incubation [6] | rate of degradation of the fluorescent hexapeptide, pH 4.0, 37° C. [7] | Fold Change in Activity of PQ Hydrolysis Relative to Wild Type Kumamolysin-As [8] [fold]
1 | B1 | 10 | 19 | – | – | – | – | – | – | –
2 | B2 | 0.1 | 26 | +/-; 65% | ++++ | ++; 0.9% | degrades the 33-mer at multiple locations (Max-like) | +/-; 55% | – | –
3 | B3 | – | 52 | ++ (undetect) | +; 9% | +/-; 62% | – | ++/-; 32% | had activity comparable to or better than Kumamolisin under these conditions | –
4 | B4 | 18 | – | ++ (undetect) | +++; 0.2% | ++; 2%; | degrades the 33-mer down at only a single location (WT-like) | ++/-; 39% | Kumamolisin has some activity breaking down these gliadin substrates | 1
